According to article doi:10.1101/501098 (bioRxiv, 2018):

Molecular target: Histone H4 (Xenopus laevis), in the nucleosome (Xenopus laevis, UniProt P62799 2-103)
Experiment: cryo-EM structure

B1: Dot1L(2-416) (domain or fragment)
chain: GEKLELRLKSPVGAEPAVYPWPLPVYDKHHDAAHEIIETIRWVCEEIPDLKLAMENYVLIDYDTKSFESMQRLCDKYNRAIDSIHQLWKGTTQPMKLNTRPSTGLLRHILQQVYNHSVTDPEKLNNYEPFSPEVYGETSFDLVAQMIDEIKMTDDDLFVDLGSGVGQVVLQVAAATNCKHHYGVEKADIPAKYAETMDREFRKWMKWYGKKHAEYTLERGDFLSEEWRERIANTSVIFVNNFAFGPEVDHQLKERFANMKEGGRIVSSKPFAPLNFRINSRNLSDIGTIMRVVELSPLKGSVSWTGKPVSYYLHTIDRTILENYFSSLKNPKLREEQEAARRRQQRESKSNAATPTKGPEGKVAGPADAPMDSGAEEEKAGAATVKKPSPSKARKKKLNKKGRKMAGRKRGRPKK
  binding result: binds
